Test results taken from patent US20090324700A1, “METHODS AND COMPOSITIONS FOR THE INHIBITION OF CATHEPSINS” (priority 2003, published 2009).

What was measured:
[1] = tested on: caspase-8, 9 and 3, and Bid; assay: Death effector assays: caspase and Bid activation (western blots, enzyme assays), RelA^−/− MEFs; format: cell-based, mouse; settings: TNF-α 0.2 ng/ml, CHX 0.1 μg/ml; FIG. 5A, 5B
Method: Death effector assays. Death effector pathways were induced in […] MEFs by treatment TNF-α (0.2 ng/ml) and CHX (0.1 μg/ml). Assays for executioner proteases (caspases and cathepsin B) were performed on crude cytoplasmic extracts (Stegh et al., 2000). Briefly, MEFs (10^6) were lysed in 10 mM Tris-Cl, pH 7.5, 100 mM NaCl, 1 mM EDTA, 0.01% Triton X-100 (50 μl) for 30 min on ice then centrifuged at 15,000 g for 30 min at 4° C. and the supernatant recovered. Protein concentration was determined by Lowry assay (DC-protein assay kit, Biorad). […]
Colorimetric assays for capases were performed in reaction buffer (50 mM HEPES, pH 7.4, 100 mM NaCl, 10 mM DTT, 1 mM EDTA, 10% glycerol, 0.1% CHAPS) at 37° C. on crude cytoplasmic extracts using p-Nitoaniline (pNA)-labeled substrates (Calbiochem) specific for caspases 3 and 7 (Ac-DEVD-pNA), caspase 8 (Ac-IETD-pNA), caspase 9 (Ac-LEHD-pNA), each at 0.2 mM. Specific activity was determined by subtracting the apparent activity detected after 1 h pre-incubation of extract with the pan-caspase inhibitor Z-VAD.fmk at 50 μM (ICN Biomedicals Inc), then normalizing for the amount of protein. […] Specific activity was determined by subtracting the apparent activity detected after 30 min pre-incubation of extract at 37° C. with the cathespin B inhibitor CA-074 Me at 30 μM (Peptide Institute) then normalizing for the amount of protein.

[2] = biological target: T1, caspase 9 (Homo sapiens, UniProt P55211); assay: Protease specificity of Spi2A: caspase 9; format: biochemical; settings: FIG. 6B
T1 construct: purchased Calbiochem or Athens Research and Technology
T1 sequence (P55211 1-315 limits assumed): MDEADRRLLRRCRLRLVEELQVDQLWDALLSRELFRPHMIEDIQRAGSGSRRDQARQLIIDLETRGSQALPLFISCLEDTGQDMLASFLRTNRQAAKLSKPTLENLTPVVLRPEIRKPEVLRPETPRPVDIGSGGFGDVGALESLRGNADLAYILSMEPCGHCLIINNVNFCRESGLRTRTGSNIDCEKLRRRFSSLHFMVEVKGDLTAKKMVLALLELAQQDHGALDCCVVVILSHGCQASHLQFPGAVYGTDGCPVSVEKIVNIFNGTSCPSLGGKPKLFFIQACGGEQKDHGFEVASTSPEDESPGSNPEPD
T1 sequence (P55211 331-416 limits assumed): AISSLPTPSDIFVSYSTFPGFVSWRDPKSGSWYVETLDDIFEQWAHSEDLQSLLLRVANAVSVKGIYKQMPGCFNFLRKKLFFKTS
Method: Protease specificity of Spi2A. RelA^−/− MEFs were transduced with retrovirus encoding Spi2A with a C-terminal 3×FLAG epitope tag and Spi2A-3×FLAG purified using a method described previously (Cooley et al., 1998). Briefly, cells (3×10^9) were lysed and Spi2A-3×FLAG (75 μg) purified by batch Q-Fast Flow ion-exchange chromatography (Pharmacia Biotech) after elution at 160-220 mM NaCl followed by anti-FLAG antibody columns, performed according to manufacturer's instructions (Sigma-Aldrich). Spi2A-3×FLAG was dialysed into PBS and stored as aliquots at −80° C. until needed.
Proteases were purchases from the manufacturers (Calbiochem or Athens Research and Technology) except granzymes A and B which were purified as described (Hanna et al., 1993) and cathespin V and K, which were purified as described (Bromme et al., 1999; Linnevers et al., 1997). Proteases (20 nM) were incubated in the appropriate assay buffer with Spi2A at 200 nM (at least 10-fold excess of inhibitor to maintain pseudo-first order conditions) for 1 h at 37° C. Control samples included only the enzyme, without the inhibitor. At the end of 1 h protease activity was assayed. […] Substrate hydrolysis was measured in a fluorescence microtiter plate reader (Spectramax Gemini XS, Molecular Devices). Percentage inhibition was calculated from the residual enzyme activity compared to no Spi2A controls. […]

B1: Spi2A: murine Spi2A polypeptide, SEQ ID NO:2; purified as C-terminal 3×FLAG protein or expressed from MIGR1 retrovirus in cells and bone-marrow chimeras (protein, listed as Mus musculus)
chain: MAGVSPAVFGCPDVTLGRNTAVREVQENVTSVDSLTLVSSNTDFAFSLYRKLVLKNPDENVVFSPFSICTALALLSLGAKSNTLKEILEGLKFNLTETPEPDIHQGFRYLLDLLSQPGNQVQISTGSALFIEKHLQILAEFKEKARALYQAEAFTADFQQPLKATKLINDYVSNHTQGKIKELISGLKESTLMVLVNYIYFKGKWKNPFDPNDTFKSEFYLDEKRSVIVSMMKTGYLTTPYFRDEELSCTVVELKYTGNASAMFILPDQGRMQQVEASLQPETLRKWKNSLKPRMIHELRLPKFSISTDYSLEHILPELGIREVFSTHADLSAITGTKDLRVSQVVHKAVLDVAEKGTEAAAATGMAGVGCCAVFDFLEIFFNRPFLMIISDTKAHIALFMAKVTNPERSTNFPNGEGASSQRLESKRLCFGDPLCLIGQ
modifications: C-terminal 3xFLAG tag
notes: purified as C-terminal 3×FLAG protein or expressed from MIGR1 retrovirus in cells and bone-marrow chimeras
Activation of apical and executioner caspases and Bid [1]: suppressed
Inhibition of protease by Spi2A (percentage inhibition) [2]: did not extend to any of the caspases tested
